Test results from IntAct's records for PubMed 12826668.

B1: Disabled homolog 1 (Mus musculus), P97318 (parent)
chain: MSTETELQVAVKTSAKKDSRKKGQDRSEATLIKRFKGEGVRYKAKLIGIDEVSAARGDKLCQDSMMKLKGVVAGARSKGEHKQKIFLTISFGGIKIFDEKTGALQHHHAVHEISYIAKDITDHRAFGYVCGKEGNHRFVAIKTAQAAEPVILDLRDLFQLIYELKQREELEKKAQKDKQCEQAVYQTILEEDVEDPVYQYIVFEAGHEPIRDPETEENIYQVPTSQKKEGVYDVPKSQPNSQPLEDFESRFAAATPNRNLSMDFDELLEATKVSAVTQLELFGDMSTPPDITSPPTPATPGDAFLPSSSQTLPGSADVFGSMSFGTAAVPSGYVAMGAVLPSFWGQQPLVQQQIAMGAQPPVAQVIPGAQPIAWGQPGLFPATQQAWPTVAGQFPPAAFMPTQTVMPLAAAMFQGPLTPLATVPGTNDSARSSPQSDKPRQKMGKESFKDFQMVQPPPVPSRKPDQPSLTCTSEAFSSYFNKVGVAQDTDDCDDFDISQLNLTPVTSTTPSTNSPPTPAPRQSSPSKSSASHVSDPTADDIFEEGFESPSKSEEQEAPDGSQASSTSDPFGEPSGEPSGDNISPQDGS
partner: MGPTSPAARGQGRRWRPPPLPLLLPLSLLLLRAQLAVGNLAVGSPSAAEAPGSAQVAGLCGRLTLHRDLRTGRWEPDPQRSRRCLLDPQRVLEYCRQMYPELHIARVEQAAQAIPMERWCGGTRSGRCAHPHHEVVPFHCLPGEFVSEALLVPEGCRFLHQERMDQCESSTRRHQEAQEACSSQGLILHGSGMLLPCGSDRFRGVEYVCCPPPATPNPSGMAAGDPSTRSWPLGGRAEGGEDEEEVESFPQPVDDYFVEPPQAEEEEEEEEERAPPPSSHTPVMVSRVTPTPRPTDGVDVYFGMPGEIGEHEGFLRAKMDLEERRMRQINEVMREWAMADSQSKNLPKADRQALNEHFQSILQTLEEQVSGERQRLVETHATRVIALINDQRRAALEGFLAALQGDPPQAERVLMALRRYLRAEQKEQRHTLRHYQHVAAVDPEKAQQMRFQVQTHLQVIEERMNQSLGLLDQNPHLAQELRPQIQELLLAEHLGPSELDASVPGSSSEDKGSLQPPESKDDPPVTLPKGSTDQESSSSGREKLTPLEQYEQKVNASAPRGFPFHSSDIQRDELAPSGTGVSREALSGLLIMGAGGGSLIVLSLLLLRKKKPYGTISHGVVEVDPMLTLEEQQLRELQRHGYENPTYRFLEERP

Variants of: B1
Settings: with aplp1_mouse Aplp1, Q03157

Row | effect of a mutation on the interaction | Variant
1 | disrupting interaction | F158V
2 | decreasing interaction | H136R
3 | disrupting interaction | S114T
